Conditions in all cases: EMSA: 15 ul, 70 C for 15 min, buffer per Ochs et al. 2012 (not given), 8% native PAGE; footprint: same binding conditions, DNase I at 37 C
For orientation: In EMSA bound probe runs differently from free probe, usually more slowly.

Series [1] concerns the target T1, TFB-RF1 (Pyrococcus furiosus) (UniProt Q8U1W6).
T1 sequence: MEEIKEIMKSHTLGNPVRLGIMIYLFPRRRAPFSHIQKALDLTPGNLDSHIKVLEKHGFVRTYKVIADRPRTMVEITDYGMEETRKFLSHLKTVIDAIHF
The experiment in a line: EMSA.

For series [2], the target named is T2, TFB-RF1;TBP;TFB (Pyrococcus furiosus;Pyrococcus furiosus?;Pyrococcus furiosus?) (UniProt Q8U1W6+P62000+P61998).
T2 sequence 1: T1 sequence
T2 sequence 2: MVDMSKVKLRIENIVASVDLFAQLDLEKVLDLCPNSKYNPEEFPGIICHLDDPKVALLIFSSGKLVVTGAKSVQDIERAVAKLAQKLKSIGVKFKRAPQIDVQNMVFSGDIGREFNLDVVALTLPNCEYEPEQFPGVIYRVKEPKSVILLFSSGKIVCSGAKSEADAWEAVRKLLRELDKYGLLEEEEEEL
T2 sequence 3: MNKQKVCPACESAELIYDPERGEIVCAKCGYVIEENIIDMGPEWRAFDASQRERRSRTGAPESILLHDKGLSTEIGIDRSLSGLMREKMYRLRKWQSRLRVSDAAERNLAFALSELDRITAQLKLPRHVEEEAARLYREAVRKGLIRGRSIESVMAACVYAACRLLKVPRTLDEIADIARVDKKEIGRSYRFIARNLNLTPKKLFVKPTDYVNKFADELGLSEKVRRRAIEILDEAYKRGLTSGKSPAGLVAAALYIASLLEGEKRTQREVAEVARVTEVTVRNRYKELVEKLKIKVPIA
The experiment in a line: EMSA.

Series [3] concerns the target T1, TFB-RF1 (Pyrococcus furiosus). Nature of the series: DNase I footprinting.

“ACTATTTTGGAAATTAGTTAAAGCTTCTAAAAAAGCTTGTTGTTTTTCTGGGATTCAGACGGATTATTTACAAAAAAGGAAAGGAATATTGGTAGCTATA (double strand) [pf1011/1012 promoter region (EMSA)]”: the binding entry in series [1] and in series [2] was “binds” each time.

For “ACTATTTTGGAAATTAGTTAAAGCTTCTAAAAAAGCTTGTTGTTTTTCTGGGATTCAGACGGATTATTTACAAAAAAGGAAAGGAATATTGGTAGCTATA (double strand) [pf1011/1012 promoter region (footprint)]”, the binding entry in series [3] was “binds”.

These data come from publication PMC5937170.
